Test results taken from patent US20070099822A1, “Regulation of tissue mineralization and phosphate metabolism by asarm peptides” (priority 2003, published 2007).
Entries after “also recorded” stand apart in the source; their conditions may differ.

Key:
male ICR Swiss mice = experiment: Example VI: subcutaneous PO4-ASARM-peptide or etidronate, calcein fluorescence and Sanderson osteoid staining; type: in vivo; settings: four layers visible in vehicle group
Method: Subcutaneous administration of PO4-ASARM-peptide, etidronate (EHDP), and calcein. Three separate groups of male ICR Swiss mice (4-5 weeks) were subcutaneously injected once a day (9:00AM), for 12 days except for days 6 and 7 with 50 μL solutions of either (1) Eitidronate (EHDP) (10 mg/kg/day); (2) PO4-ASARM-peptide (2 mg/kg/day); or (3) vehicle consisting of 5 mM HEPES pH 7.4/150 mM NaCL/0.1% BSA. The synthetic PO4-ASARM-peptide was dissolved in vehicle (1.0 mg/mL). Etidronate was first dissolved in 150 mM NaCl and then buffered to pH 7.5 with 1M NaOH to give a 5 mg/mL solution. The 10 mg/kg/day doses of etidronate have previously been reported to inhibit mineralization in rats and were used as positive controls (Trechsel, et al., Am J Physiol 232(3):E298-305, 1977; Bonjour, et al., Am J Physiol 229(2):402-8, 1975). All three groups were subcutaneously injected with calcein (20 mg/kg/day) on days 3, 5, […]. The degree of calcein fluorescence and/or fluorescence-quenching is an indicator of mineralization status (see next section). The calcein injections when given were administered 1 h after the daily injections of PO4-ASARM-peptide, EHDP or vehicle. Animals were then terminated humanely and calvariae plus femurs/tibia were fixed in 70% ethanol (non-decalcified). After fluorescence imaging (see FIG. 35) calvariae were processed in plastic and stained with Sanderson's stain (see below). Five animals per group were used for statistical analysis of fluorescence quenching and histological Sanderson staining.
Calcein fluorescence in mice calvariae, hind-limbs & fluor-imager analysis of mineralization. A Bio-Rad (Hercules, Calif.) FluorImager^max fluorescent imager was used to simultaneously image all the samples from each of the 3 groups (15 animals; five animals per group). This consisted of 10 tibia/femurs and 5 calvariae per group. Samples were placed on top of the FluorImager plate contained within a light-tight box. Ultra-violet light was used to generate calcein-mediated epi-fluorescence and the fluorescent-image was captured on a −40° C., peltier-cooled, 1,340×1040 pixel CCD resolution, CCD digital-camera. Quantitation of fluorescence was carried out using Quantity-1 (Bio-Rad, Hercules, Calif.) fluorescence-software. Pixel saturation was prevented by internal software calibration and exposure adjustment. All fluorescence readings were thus accurately quantitative and non-saturating. Photo-micrographic UV fluorescent analysis of calvarial cross sections embedded in plastic and mounted as slides (<100 micrometer sections) was also undertaken and a description of the fixation and processing is given in the next section.
Sanderson-staining and fluorescence detection of calvarial osteoid & mineralized bone. Staining of non-decalcified calvarial sections was performed using the method described by Sanderson and Bachus (Staining technique to differentiate mineralized and demineralized bone in ground sections, J Histotechnol 20(2): 119-122, 1997). This technique provides differential staining between unmineralized osteoid and mineralized bone. Prior to staining, calvariae were dissected and attached tissue removed. Calvariae were then placed in 70% ethanol for further fixation as described by Sanderson and Bachus (supra). After fixing and processing undecalcified calvariae were embedded in plastic (LR-white acrylic resin (London Resin Co., Reading, England)) as previously described (Garrett, et al., Selective inhibitors of the osteoblast proteasome stimulate bone formation in vivo and in vitro, J Clin Invest 111(11):1771-1782, 2003). Plastic embedded sections were ground to <100 micrometers using a specialized grinding-pestle as described by Donath and Breuner (A method for the study of undecalcified bones and teeth with attached soft tissues. The Sage-Schliff (sawing and grinding) technique, J Oral Pathol 11(4):318-26, 1982). […]

CHO cell tumors = experiment: Example IV: CHO cell tumors expressing MEPE in athymic nude mice; type: in vivo
Method: Six groups of athymic nude mice were injected with the one of the following: normal saline, CHO cells, CHO cells containing an empty vector, CHO cells expressing MEPE (CHO-MEPE), CHO cells expressing PHEX (CHO-PHEX), and CHO cells expressing PHEX and MEPE (CHO-PHEX-MEPE). Tumor size was assessed based on combined tumor weight at nine different time points.

H-CFSSRRRDDSSESSDSGSSSESDGD-OH [ASARM-peptide]
lamellar calcein fluorescent layers in calvarial cross-sections (male ICR Swiss mice): complete absence

B1: Hu-MEPE: purified insect expressed full-length recombinant human MEPE (Matrix Extracellular Phosphoglycoprotein) (protein)
chain: PTFQPQTEKTKQSCVEEQRQEEKNKDNIGFHHLGKRINQELSSKENIVQERKKDLSLSEASENKGSSKSQNYFTNRQRLNKEYSISNKENTHNGLRMSIYPKSTGNKGFEDGDDAISKLHDQEEYGAALIRNNMQHIMGPVTAIKLLGEENKENTPRNVLNIIPASMNYAKAHSKDKKKPQRDSQAQKSPVKSKSTHRIQHNIDYLKHLSKVKKIPSDFEGSGYTDLQERGDNDISPFSGDGQPFKDIPGKGEATGPDLEGKDIQTGFAGPSEAESTHLDTKKPGYNEIPEREENGGNTIGTRDETAKEADAVDVSLVEGSNDIMGSTNFKELPGREGNRVDAGSQNAHQGKVEFHYPPAPSKEKRKEGSSDAAESTNYNEIPKNGKGSTRKGVDHSNRNQATLNEKQRFPSKGKSQGLPIPSRGLDNEIKNEMDSFNGPSHENIITHGRKYHYVPHRQNNSTRNKGMPQGKGSWGRQPHSNRRFSSRRRDDSSESSDSGSSSESDGD
tumor size (combined tumor weight) (CHO cell tumors; CHO cells expressing MEPE vs CHO cells with empty vector, nude mice): significantly reduced; also recorded: dramatically reduced size | 1,25-vitamin D3 serum levels (CHO cell tumors; CHO-MEPE and CHO-PHEX-MEPE groups vs groups not expressing MEPE): decrease in serum levels | serum phosphate (CHO cell tumors; after thirteen days, CHO-MEPE and CHO-PHEX-MEPE groups): hypophosphatemia; also recorded: decrease in serum phosphate
